{"source": "patent US20100216187A1", "about": "(published 2010)", "binders": {"B1": {"name": "Nanobody 4D4 (VHH)", "VHH": "EVQLVESGGGLVQAGDSLRLSCAASGRTFSPYVMGWFRRAPGKEREFVGGINWSGSNTWYTDSVKGRFTISRDNVKNMVYLQMNSLKPEDTAVYYCAAGSGVGMYRYERQYDYWGQGTQVTVSS"}, "B2": {"name": "Nanobody 4C3 (VHH)", "VHH": "EVQLVESGGGLVQAGGSLRLSCAASGRTFSSYAMAWFRQAPGEEREFVATISVSGGYTYYADSVKGRFTISRDNAKNTVYLQMNTLKPEDTAVYYCAAGDSSSWLEHMYDYWGQGTQVTVSS"}, "B3": {"name": "Nanobody 4D10 (VHH)", "VHH": "EVQLVESGGGLVQAGDSLRLSCTASERPFMSYVMGWFRRAPGKDREFVGAITWSGINTWYSDSVLGRFTISRDNAKNTVYLQMNSLKPEDTAVYYCAVADGVGLYRYERQYDYWGQGTQVTVSS"}, "B4": {"name": "Nanobody 4B10 (VHH)", "VHH": "EVQLVESGGGLVQAGDSLRLSCAASGRTFSSYAMGWFRQAPGTERQFVARITGKGDSTDYADSVRGRFTISRDNAKNTVYLQMNSLKPEDTAVYYCAADAFNSLLQAGRAEYWGQGTQVTVSS"}, "B5": {"name": "Nanobody 4A9 (VHH)", "VHH": "EVQLVESGGGLVQAGGSLRLSCEASGFTLDYSGVGWFRQAPGKERELVSCISRGGDRAGYANSVKGRFTMSRDNAKNILYLQMNSLKPEDTAVYYCAATHSGSGCYDGAIDYWGKGTLVTVSS"}, "B6": {"name": "Nanobody 4C9 (VHH)", "VHH": "EVQLVESGGGLVQAGDSLRLSCTASERPFSTYVMGWFRRAPGKEREFVGGITWSGINAWYTDSVLGRFTISSDNAKNTVYLQMNSLKPEDTAVYYCAAASGVGRYRYELQYDYWGQGTQVTVSS"}, "B7": {"name": "Nanobody 4D5 (VHH)", "VHH": "EVQLVESGGGLVQAGGSLRLSCAASGLSFSKYAMGWFRQAPGKQREYVAVISSSDTTYYTNSAKGRFTISRDNAENTVYLQMNSLKPEDTAVYFCAADSYVTALQTLTQISYWGQGTQVTVSS"}, "B8": {"name": "Nanobody 4C11 (VHH)", "VHH": "B7 VHH with K31R, Y100F, S111N"}, "B9": {"name": "Nanobody 4C5 (VHH)", "VHH": "EVQLVESGGGLVQAGDSLRLSCAASGRPFSAYVMGWFRRAPGKEREFVGGINWNSANTWYTDSVLGRFTISKDNAKNTVYLQMNSLKPEDTAVYYCAAAGGVGYYRYERQYDYWGQGTQVTVSS"}, "B10": {"name": "Nanobody 4D7 (VHH)", "VHH": "B9 VHH with A31S, A56G, T61S, K72R, Y80D, A98T, G100S"}, "B11": {"name": "Nanobody 4C4 (VHH)", "VHH": "B9 VHH with S30M, A31S, N54G, A56G, K72R, A98T, G100A"}, "B12": {"name": "Nanobody 4C8 (VHH)", "VHH": "EVQLVESGGGLVQAGDSLRLSCAASGRTYTPYVMGWFRRAPGKEREFVGAVSWSGTNTWYTDSVKGRFTISRDNAKNTVYLQMNSLKPEDTAVYYCAAGDGVGIYRYEHQYDYWGQGTQVTVSS"}, "B13": {"name": "Nanobody 4B6 (VHH)", "VHH": "KVQLVESGGGLVQVGGSLRLSCVASGRTYGGNAMAWFRQAPGKEREFVAGIDWSSENTRYTDSVKGRFTISRDNAKNTMYLQMNSLKPEDTAVYYCAAGTSWGALASRLENAYSAWGQGTQVTVSS"}, "B14": {"name": "Nanobody 4B8 (VHH)", "VHH": "B13 VHH with K1E, V14A, V23A, R27G, G30S, T61I, N111A, A115S"}, "B15": {"name": "Nanobody 4B5 (VHH)", "VHH": "B13 VHH with K1E, V14A, G16D, V23A, G30S, G31R, T61I, N77S, N111A, A115S"}, "B16": {"name": "Nanobody 4B1 (VHH)", "VHH": "EVQLVESGGGLVQPGGSLRLSCVAAGFTLDYYAIGWFRQAPGKEREGVSCITSDGRTYYADSVKGRFTISRDMAKKMVYLQMNSLKPEDTAVYYCAAGACMGGSGYEADFGSWGQGTQVTVSS"}, "B17": {"name": "Nanobody 4A6 (VHH)", "VHH": "B16 VHH with V23A, A25S, G26P, I51S, D54H, R56K, Y59H, M73N, K76N, M77T"}}, "note": "Numbering of substitutions follows the chain as printed."}
{"target": "T1, human serum albumin (human, UniProt P02768 25-609)", "T1 construct": "Bought serum albumin; also called HSA; antigen", "test": "SPR (Biacore), ratio of the off rates at the two pH"}
{"binder": "B1", "Ratio pH 7/pH 5 (of kd)": 2.76}
{"binder": "B2", "Ratio pH 7/pH 5 (of kd)": 3.35}
{"binder": "B3", "Ratio pH 7/pH 5 (of kd)": 6.52}
{"binder": "B4", "Ratio pH 7/pH 5 (of kd)": 0.87}
{"binder": "B5", "Ratio pH 7/pH 5 (of kd)": 0.54}
{"binder": "B6", "Ratio pH 7/pH 5 (of kd)": 3.88}
{"binder": "B7", "Ratio pH 7/pH 5 (of kd)": 1.29}
{"binder": "B8", "Ratio pH 7/pH 5 (of kd)": 1.19}
{"binder": "B9", "Ratio pH 7/pH 5 (of kd)": 2.44}
{"binder": "B10", "Ratio pH 7/pH 5 (of kd)": 2.42}
{"binder": "B11", "Ratio pH 7/pH 5 (of kd)": 2.42}
{"binder": "B12", "Ratio pH 7/pH 5 (of kd)": 3.35}
{"binder": "B13", "Ratio pH 7/pH 5 (of kd)": 3.23}
{"binder": "B14", "Ratio pH 7/pH 5 (of kd)": 2.43}
{"binder": "B15", "Ratio pH 7/pH 5 (of kd)": 2.32}
{"binder": "B16", "Ratio pH 7/pH 5 (of kd)": 0.88}
{"binder": "B17", "Ratio pH 7/pH 5 (of kd)": 5.77}
